In PMC3776778, “A Fully Human Inhibitory Monoclonal Antibody to the Wnt Receptor RYK” (PLoS ONE, 2013):

Molecular target: T1, recombinant mouse Wnt3a protein (mouse, UniProt P27467 19-352)
T1 construct: recombinant mouse Wnt3a (R&D Systems); the bought protein is probably the mature secreted form (surmise); also called recombinant Wnt3a protein; source: bought: R&D Systems
Assay: ELISA; competitive ELISA, third round of a screen of a human scFv phage display library: phage clones against recombinant mouse Wnt3a for binding to purified hRYKWD.Fc
Conditions: both partners purified

T1 sequence (P27467 19-352): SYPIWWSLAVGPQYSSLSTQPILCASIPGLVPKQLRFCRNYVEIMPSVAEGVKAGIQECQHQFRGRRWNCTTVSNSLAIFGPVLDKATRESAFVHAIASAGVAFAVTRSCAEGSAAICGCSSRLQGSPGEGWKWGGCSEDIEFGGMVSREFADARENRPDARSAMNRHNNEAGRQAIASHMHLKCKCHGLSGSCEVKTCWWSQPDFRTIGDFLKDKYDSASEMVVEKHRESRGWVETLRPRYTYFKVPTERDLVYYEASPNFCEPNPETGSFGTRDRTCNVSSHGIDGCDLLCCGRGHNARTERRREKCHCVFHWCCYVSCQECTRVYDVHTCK

B1: hRYKWD.Fc (WIF domain of human RYK fused to the Fc.FLAG region of human IgG1) (Fc fusion, UniProt P34925 66-194, looked up)
chain: LYLSEDEVRRLIGLDAELYYVRNDLISHYALSFSLLVPSETNFLHFTWHAKSKVEYKLGFQVDNVLAMDMPQVNISVQGEVPRTLSVFRVELSCTGKVDSEVMILMQLNLTVNSSKNFTVLNFKRRKMC
notes: WIF domain of human RYK, lacking the metalloprotease cleavage site; also called hRYKWD.Fc.FLAG; human RYK WIF domain-only fusion protein
B1: binds.
